Measured values from US20160280784A1, “Antibodies Directed to GPNMB and Uses Thereof” (Celldex Therapeutics, Inc., priority 2009, published 2016).

How the values were obtained:
[1] = system: patients with locally advanced or metastatic breast cancer; assay: Phase I/II study of CDX-011, preliminary 18 patients: toxicity and dose escalation; assay type: in vivo, human
Procedure: (§1) There was no limit to the number of prior regimens.
(§2) For Phase I dose escalation studies, the starting dose was 1.34 mg/kg IV every three weeks (q3w). Sequential dose cohorts (n=3) were enrolled based on tolerability. The cap was set at 1.88 mg/kg IV q3w.
The toxicity results are shown below in Table 34. All treatment-emergent adverse events are shown in the table, regardless of attribution.

[2] = system: patients with locally advanced or metastatic breast cancer; assay: Phase I/II study of CDX-011, preliminary 18 patients: tumor response; assay type: in vivo, human
Procedure: as §1, §2

[3] = system: patients with locally advanced or metastatic breast cancer; assay: Phase II study (n = 42): tolerability of CR011-vcMMAE (CDX-011); assay type: in vivo, human
Description: (§3) For the Phase II Simon Two-Stage study, the primary endpoint was set at progression-free rate at 12 weeks. The following statistical assumptions were used p0=10%; p1=30%; α=β=0.10; first stage included sixteen patients; and if two or more patients were progression-free at 12 weeks, the total enrollment would increase to 25.
In particular, the treated patients (n=42) received a mean of 3.5 (range 1-8) cycles of treatment during this study. Four patients discontinued treatment due to adverse events (neuropathy, rash, dermatologic bullae and acute renal failure). Dose-escalation dose-limiting toxicities (DLTs) were limited to two cases of neuropathy (at the 1.34 mg/kg dose). After revision of the protocol to exclude pre-existing neuropathy ≧Grade 2, no further DLT occurred.

[4] = system: patients with locally advanced or metastatic breast cancer; assay: Phase II Simon Two-Stage study / Phase II dose: anti-tumor activity (RECIST); assay type: in vivo, human; conditions: for Median PFS: Phase II Dose 1.88 mg/kg
Procedure: as §3
Additional measures of anti-tumor activity were evaluated for the patients in this further study.

[5] = system: GPNMB-expressing breast cancer cells; assay: growth / killing of GPNMB-expressing breast cancer cells in vitro; assay type: cell-based
melanoma = melanoma patients; cited from earlier work
[6] = 18 patients, regardless of attribution
[7] = All Patients (n = 42), potentially related to CDX-011
[8] = one patient with triple-negative disease, strongly positive stromal GPNMB expression

Substance: glembatumumab vedotin [CDX-011]
- tolerability in dose escalation ([1]; 1.88 mg/kg IV q3w): tolerated
- Alopecia, Total [1, 6]: 9 (50%) n (%)
- Anorexia, Grade 3 [1, 6]: 0 (0%) n (%)
- Anorexia, Grade 4 [1, 6]: 0 (0%) n (%)
- Anorexia, Total [1, 6]: 5 (28%) n (%)
- Any Event, Grade 3 [1, 6]: 10 (56%) n (%)
- Any Event, Grade 4 [1, 6]: 0 (0%) n (%)
- Any Event, Total [1, 6]: 18 (100%) n (%)
- Constipation, Grade 3 [1, 6]: 0 (0%) n (%)
- Constipation, Grade 4 [1, 6]: 0 (0%) n (%)
- Constipation, Total [1, 6]: 6 (33%) n (%)
- Cough, Grade 3 [1, 6]: 1 (6%) n (%)
- Cough, Grade 4 [1, 6]: 0 (0%) n (%)
- Cough, Total [1, 6]: 6 (33%) n (%)
- Diarrhea, Grade 3 [1, 6]: 0 (0%) n (%)
- Diarrhea, Grade 4 [1, 6]: 0 (0%) n (%)
- Diarrhea, Total [1, 6]: 5 (28%) n (%)
- Dizziness, Grade 3 [1, 6]: 0 (0%) n (%)
- Dizziness, Grade 4 [1, 6]: 0 (0%) n (%)
- Dizziness, Total [1, 6]: 4 (22%) n (%)
- Dysgeusia, Grade 3 [1, 6]: 0 (0%) n (%)
- Dysgeusia, Grade 4 [1, 6]: 0 (0%) n (%)
- Dysgeusia, Total [1, 6]: 4 (22%) n (%)
- Fatigue, Grade 3 [1, 6]: 1 (6%) n (%)
- Fatigue, Grade 4 [1, 6]: 0 (0%) n (%)
- Fatigue, Total [1, 6]: 9 (50%) n (%)
- Fever, Grade 3 [1, 6]: 0 (0%) n (%)
- Fever, Grade 4 [1, 6]: 0 (0%) n (%)
- Fever, Total [1, 6]: 5 (28%) n (%)
- Nausea, Grade 3 [1, 6]: 1 (6%) n (%)
- Nausea, Grade 4 [1, 6]: 0 (0%) n (%)
- Nausea, Total [1, 6]: 8 (44%) n (%)
- Neuropathy, Grade 3 [1, 6]: 2 (11%) n (%)
- Neuropathy, Grade 4 [1, 6]: 0 (0%) n (%)
- Neuropathy, Total [1, 6]: 7 (39%) n (%)
- Neutropenia, Grade 3 [1, 6]: 3 (17%) n (%)
- Neutropenia, Grade 4 [1, 6]: 0 (0%) n (%)
- Neutropenia, Total [1, 6]: 5 (28%) n (%)
- Pain, Gastrointestinal, Grade 3 [1, 6]: 1 (6%) n (%)
- Pain, Gastrointestinal, Grade 4 [1, 6]: 0 (0%) n (%)
- Pain, Gastrointestinal, Total [1, 6]: 6 (33%) n (%)
- Pain, Musculoskeletal, Grade 3 [1, 6]: 1 (6%) n (%)
- Pain, Musculoskeletal, Grade 4 [1, 6]: 0 (0%) n (%)
- Pain, Musculoskeletal, Total [1, 6]: 5 (28%) n (%)
- Pruritus, Grade 3 [1, 6]: 0 (0%) n (%)
- Pruritus, Grade 4 [1, 6]: 0 (0%) n (%)
- Pruritus, Total [1, 6]: 3 (17%) n (%)
- Rash, Grade 3 [1, 6]: 1 (6%) n (%)
- Rash, Grade 4 [1, 6]: 0 (0%) n (%)
- Rash, Total [1, 6]: 11 (61%) n (%)
- Vomiting, Grade 3 [1, 6]: 0 (0%) n (%)
- Vomiting, Grade 4 [1, 6]: 0 (0%) n (%)
- Vomiting, Total [1, 6]: 7 (39%) n (%)
- dose-limiting toxicity ([1]; first two patients enrolled at 1.34 mg/kg IV q3w, both had baseline neuropathy): dose-limiting worsening of peripheral sensory neuropathy
- patients discontinued for an adverse event ([1]; of 18 patients treated, one for neuropathy and one for rash): two
- tumor shrinkage ([2]; initial results from a phase I/II trial, metastatic breast cancer): tumor shrinkage was observed
- confirmed partial response ([2]; of the 18 patients): one
- patients with at least a partial response ([2]; of the 18 patients): three
- tumor shrinkage observed ([2]; of the 18 patients (50%)): 9 patients
- maximum tumor reduction ([2]; one patient, ER+/PR+/HER2+, partial response after two cycles, confirmed 6 weeks later, treatment for over 5 months): 42%
- reduction in target lesions (partial response, CT) ([2]; one patient, ER+/PR+/HER2−, GPNMB positive biopsy, after two cycles): 51%
- clinical outcome ([2]; one patient, triple negative, skull metastases, following two cycles, resolution of mental nerve paresis and discontinuation of analgesics): marked clinical improvement
- reduction in target lesions (partial response, CT) ([2]; one patient, triple negative, after four cycles): 34%
- tolerability ([3]; 1.88 mg/kg IV q3w, patients with advanced breast cancer): well-tolerated
- Alopecia, Total [3, 7]: 14 (33%) n (%)
- Anemia, Total [3, 7]: 10 (24%) n (%)
- Asthenia, Grade 3 [3, 7]: 2 (5%) n (%)
- Asthenia, Total [3, 7]: 3 (7%) n (%)
- Fatigue, Grade 3 [3, 7]: 2 (5%) n (%)
- Fatigue, Total [3, 7]: 20 (48%) n (%)
- Nausea, Grade 3 [3, 7]: 2 (5%) n (%)
- Nausea, Total [3, 7]: 19 (45%) n (%)
- Neuropathy, Grade 3 [3, 7]: 1 (2%) n (%)
- Neuropathy, Total [3, 7]: 10 (24%) n (%)
- Neutropenia, Grade 3 [3, 7]: 8 (19%) n (%)
- Neutropenia, Total [3, 7]: 12 (29%) n (%)
- Rash, Grade 3 [3, 7]: 2 (5%) n (%)
- Rash, Total [3, 7]: 19 (45%) n (%)
- Vomiting, Grade 3 [3, 7]: 1 (2%) n (%)
- Vomiting, Total [3, 7]: 12 (29%) n (%)
- serious adverse events potentially related ([3]; all single cases at the Phase II dose): intractable vomiting/nausea, dermatologic bullae and acute renal failure
- dose-escalation dose-limiting toxicities (DLTs) ([3]; at the 1.34 mg/kg dose): two
- patients discontinued treatment due to adverse events ([3]; n=42, neuropathy, rash, dermatologic bullae and acute renal failure): Four
- most common adverse event reported ([3]; patients treated with CR011-vcMMAE): Rash
- Median PFS ([4]; all patients): 9.1 weeks
- Median PFS ([4]; Expressing GPNMB): 18.3 weeks
- Median PFS ([4]; Triple-negative disease): 17.9 weeks
- outcomes by expression of GPNMB ([4]; heavily pretreated advanced breast cancer patients): associated with improved outcomes
- duration partial response was maintained [4, 8]: ≥ 23 weeks
- tumor shrinkage (partial response) [4, 8]: 53%
- patients without progression at 12 weeks (primary efficacy endpoint) ([4]; out of 26 patients): at least 9 patients
- killing of GPNMB-expressing breast cancer cells [5]: selectively killed
- growth of GPNMB-expressing breast cancer cells ([5]; in vitro): effectively inhibits the growth
- clinical activity (melanoma): clinical activity
- tolerability (melanoma): well tolerated
